From publication PMC3285272 (Cell, 2012)

What was measured:
[1] = target: T1, full-length βδ-COP dimer (R. norvegicus | B. taurus, UniProt P23514 1-953; P53619 1-511); experiment: pull-down
T1 sequence (looked up) 1: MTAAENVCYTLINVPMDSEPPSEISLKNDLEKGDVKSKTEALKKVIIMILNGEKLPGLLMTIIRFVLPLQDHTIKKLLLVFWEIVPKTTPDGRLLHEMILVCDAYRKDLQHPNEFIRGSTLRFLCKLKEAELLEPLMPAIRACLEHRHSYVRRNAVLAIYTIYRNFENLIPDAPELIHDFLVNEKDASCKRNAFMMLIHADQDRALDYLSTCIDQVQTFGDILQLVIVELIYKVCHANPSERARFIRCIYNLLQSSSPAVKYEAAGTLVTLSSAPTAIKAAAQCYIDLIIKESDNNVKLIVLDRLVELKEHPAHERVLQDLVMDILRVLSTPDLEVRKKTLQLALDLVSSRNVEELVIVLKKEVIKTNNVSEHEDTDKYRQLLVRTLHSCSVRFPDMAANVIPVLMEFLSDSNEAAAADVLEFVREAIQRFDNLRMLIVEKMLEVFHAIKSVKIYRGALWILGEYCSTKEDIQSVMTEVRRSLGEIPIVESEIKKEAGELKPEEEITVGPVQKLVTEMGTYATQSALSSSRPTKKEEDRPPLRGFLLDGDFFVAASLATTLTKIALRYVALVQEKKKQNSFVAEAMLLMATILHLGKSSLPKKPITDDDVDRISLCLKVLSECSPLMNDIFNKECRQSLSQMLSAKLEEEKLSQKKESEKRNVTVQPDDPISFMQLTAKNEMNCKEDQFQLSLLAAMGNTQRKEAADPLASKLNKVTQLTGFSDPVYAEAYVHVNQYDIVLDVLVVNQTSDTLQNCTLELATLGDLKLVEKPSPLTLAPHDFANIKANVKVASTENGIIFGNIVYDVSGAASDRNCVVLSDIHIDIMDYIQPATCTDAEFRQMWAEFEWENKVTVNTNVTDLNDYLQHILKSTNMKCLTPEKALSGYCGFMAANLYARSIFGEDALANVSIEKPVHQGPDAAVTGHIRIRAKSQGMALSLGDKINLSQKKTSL
T1 sequence (looked up) 2: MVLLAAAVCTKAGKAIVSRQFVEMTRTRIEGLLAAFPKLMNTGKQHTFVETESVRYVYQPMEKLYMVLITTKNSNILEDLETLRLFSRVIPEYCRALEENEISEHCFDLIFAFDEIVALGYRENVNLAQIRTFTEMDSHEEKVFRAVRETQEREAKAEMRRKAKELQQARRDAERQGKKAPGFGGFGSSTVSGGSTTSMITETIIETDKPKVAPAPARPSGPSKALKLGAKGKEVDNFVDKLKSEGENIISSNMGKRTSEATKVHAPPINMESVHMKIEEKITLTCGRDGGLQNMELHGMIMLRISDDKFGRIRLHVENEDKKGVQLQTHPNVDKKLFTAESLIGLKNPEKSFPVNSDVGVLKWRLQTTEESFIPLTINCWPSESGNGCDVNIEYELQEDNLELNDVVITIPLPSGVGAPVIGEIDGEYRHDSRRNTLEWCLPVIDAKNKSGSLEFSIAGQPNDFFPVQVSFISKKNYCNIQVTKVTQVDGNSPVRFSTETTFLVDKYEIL

[2] = target: T2, γζ-COP core complex (bovine γ-COP 1–355 plus ζ-COP 1–153) (B. taurus, UniProt P53620 1-355; P35604 1-153); experiment: pull-down
T2 sequence (looked up) 1: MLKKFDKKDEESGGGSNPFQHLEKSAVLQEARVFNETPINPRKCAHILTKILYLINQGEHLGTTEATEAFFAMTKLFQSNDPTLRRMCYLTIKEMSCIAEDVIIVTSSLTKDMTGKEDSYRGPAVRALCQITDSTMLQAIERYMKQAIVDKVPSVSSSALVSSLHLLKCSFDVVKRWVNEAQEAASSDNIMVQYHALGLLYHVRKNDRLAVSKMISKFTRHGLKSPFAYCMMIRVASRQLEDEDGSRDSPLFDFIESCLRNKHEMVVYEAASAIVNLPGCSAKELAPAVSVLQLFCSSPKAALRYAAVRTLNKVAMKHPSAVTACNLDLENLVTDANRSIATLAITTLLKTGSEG
T2 sequence (looked up) 2: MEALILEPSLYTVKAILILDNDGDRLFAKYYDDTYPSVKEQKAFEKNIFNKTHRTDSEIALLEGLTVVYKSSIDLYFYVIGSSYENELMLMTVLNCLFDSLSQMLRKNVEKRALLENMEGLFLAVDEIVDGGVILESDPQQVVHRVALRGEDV

binding result [1]: binds | binding result [2]: binds
B1: S. cerevisiae Arf1 (residues 18–181) with a C-terminal GST tag (domain or fragment, UniProt P11076 18-181, looked up)
chain: MRILMVGLDGAGKTTVLYKLKLGEVITTIPTIGFNVETVQYKNISFTVWDVGGQDRIRSLWRHYYRNTEGVIFVVDSNDRSRIGEAREVMQRMLNEDELRNAAWLVFANKQDLPEAMSAAEITEKLGLHSIRNRPWFIQATCATSGEGLYEGLEWLSNSLKNST
